Experimental data taken from paper PMC7954794, “Protein context shapes the specificity of SH3 domain-mediated interactions in vivo” (Nature Communications, 2021).

B1: S. cerevisiae Abp1 (full length; SH3 domain 535-592 mutated) / Hua2 (parent)
chain 1: MALEPIDYTTHSREIDAEYLKIVRGSDPDTTWLIISPNAKKEYEPESTGSSFHDFLQLFDETKVQYGLARVSPPGSDVEKIIIIGWCPDSAPLKTRASFAANFAAVANNLFKGYHVQVTARDEDDLDENELLMKISNAAGARYSIQTSSKQQGKASTPPVKKSFTPSKSPAPVSKKEPVKTPSPAPAAKISSRVNDNNDDDDWNEPELKERDFDQAPLKPNQSSYKPIGKIDLQKVIAEEKAKEDPRLVQKPTAAGSKIDPSSDIANLKNESKLKRDSEFNSFLGTTKPPSMTESSLKNDDDKVIKGFRNEKSPAQLWAERKAKQNSGNAETKAEAPKPEVPEDEPEGEPDVKDLKSKFEGLAASEKEEEEMENKFAPPPKKSEPTIISPKPFSKPQEPVKAEEAEQPKTDYKKIGNPLPGMHIEADNEEEPEENDDDWDDDEDEAAQPPLPSRNVASGAPVQKEEPEQEEIAPSLPSRNSIPAPKQEEAPEQAPEEEIEEEAEEAAPQLPSRSSAAPPPPPRRATPEKKPKENPWATAEYDYDAAEDNELTFVENDKIINIEFVDDDWWLGELEKDGSKGLFPSNYVSLGN
chain 2: MQQTKFGKMYLDHDSVVEYSEDEIVEADRITLGYKKRLSMIENQMRHLLEDFSLDVQQIEPILADLQKYYDAFLQLLQKRNKSLQCKRSTHQPVPSPMNSQTSTNAKVNLSGKLMKFQLNSVQKFDEENILRILQNKIEFEHYFQIDKGKKQKVLLLAVYQCLNGPTRLHKVLNIEGIIHNNSIRTILGKQVSSSKWTVFLYDVKLVLLAHRQDVPNLETSKMIVRYGDLFPCALYFKDHTAY

Variants of: B1
Experiment: DHFR protein-fragment complementation in yeast (Abp1-DHFR F[1,2] x partner-DHFR F[3]), deep mutational scanning, second methotrexate selection vs reference
Settings: with Hua2; S. cerevisiae, DHFR-PCA selection in liquid with methotrexate at 30 C, two 72 h selections (the score uses the second); reference = the pre-selection culture; not an affinity; value at the no-binding floor (a bound); scale: DMS score: mean over two replicates of log2(f_test/f_ref + 0.5)/ln 2, minus the synonymous-codon median

Variant | screen value
chain 1 MALEPIDYTTHSREIDAEYLKIVRGSDPDTTWLIISPNAKKEYEPESTGSSFHDFLQLFDETKVQYGLARVSPPGSDVEKIIIIGWCPDSAPLKTRASFAANFAAVANNLFKGYHVQVTARDEDDLDENELLMKISNAAGARYSIQTSSKQQGKASTPPVKKSFTPSKSPAPVSKKEPVKTPSPAPAAKISSRVNDNNDDDDWNEPELKERDFDQAPLKPNQSSYKPIGKIDLQKVIAEEKAKEDPRLVQKPTAAGSKIDPSSDIANLKNESKLKRDSEFNSFLGTTKPPSMTESSLKNDDDKVIKGFRNEKSPAQLWAERKAKQNSGNAETKAEAPKPEVPEDEPEGEPDVKDLKSKFEGLAASEKEEEEMENKFAPPPKKSEPTIISPKPFSKPQEPVKAEEAEQPKTDYKKIGNPLPGMHIEADNEEEPEENDDDWDDDEDEAAQPPLPSRNVASGAPVQKEEPEQEEIAPSLPSRNSIPAPKQEEAPEQAPEEEIEEEAEEAAPQLPSRSSAAPPPPPRRATPEKKPKENPWATAEYDYDAAEDNELTGVENDKIINIEFVDDDWWLGELEKDGSKGLFPSNYVSLGN [chain 1 F553G] | -3.04
chain 1 MALEPIDYTTHSREIDAEYLKIVRGSDPDTTWLIISPNAKKEYEPESTGSSFHDFLQLFDETKVQYGLARVSPPGSDVEKIIIIGWCPDSAPLKTRASFAANFAAVANNLFKGYHVQVTARDEDDLDENELLMKISNAAGARYSIQTSSKQQGKASTPPVKKSFTPSKSPAPVSKKEPVKTPSPAPAAKISSRVNDNNDDDDWNEPELKERDFDQAPLKPNQSSYKPIGKIDLQKVIAEEKAKEDPRLVQKPTAAGSKIDPSSDIANLKNESKLKRDSEFNSFLGTTKPPSMTESSLKNDDDKVIKGFRNEKSPAQLWAERKAKQNSGNAETKAEAPKPEVPEDEPEGEPDVKDLKSKFEGLAASEKEEEEMENKFAPPPKKSEPTIISPKPFSKPQEPVKAEEAEQPKTDYKKIGNPLPGMHIEADNEEEPEENDDDWDDDEDEAAQPPLPSRNVASGAPVQKEEPEQEEIAPSLPSRNSIPAPKQEEAPEQAPEEEIEEEAEEAAPQLPSRSSAAPPPPPRRATPEKKPKENPWATAEYDYDAAEDNELTHVENDKIINIEFVDDDWWLGELEKDGSKGLFPSNYVSLGN [chain 1 F553H] | < -3.06
chain 1 MALEPIDYTTHSREIDAEYLKIVRGSDPDTTWLIISPNAKKEYEPESTGSSFHDFLQLFDETKVQYGLARVSPPGSDVEKIIIIGWCPDSAPLKTRASFAANFAAVANNLFKGYHVQVTARDEDDLDENELLMKISNAAGARYSIQTSSKQQGKASTPPVKKSFTPSKSPAPVSKKEPVKTPSPAPAAKISSRVNDNNDDDDWNEPELKERDFDQAPLKPNQSSYKPIGKIDLQKVIAEEKAKEDPRLVQKPTAAGSKIDPSSDIANLKNESKLKRDSEFNSFLGTTKPPSMTESSLKNDDDKVIKGFRNEKSPAQLWAERKAKQNSGNAETKAEAPKPEVPEDEPEGEPDVKDLKSKFEGLAASEKEEEEMENKFAPPPKKSEPTIISPKPFSKPQEPVKAEEAEQPKTDYKKIGNPLPGMHIEADNEEEPEENDDDWDDDEDEAAQPPLPSRNVASGAPVQKEEPEQEEIAPSLPSRNSIPAPKQEEAPEQAPEEEIEEEAEEAAPQLPSRSSAAPPPPPRRATPEKKPKENPWATAEYDYDAAEDNELTKVENDKIINIEFVDDDWWLGELEKDGSKGLFPSNYVSLGN [chain 1 F553K] | < -3.06
chain 1 MALEPIDYTTHSREIDAEYLKIVRGSDPDTTWLIISPNAKKEYEPESTGSSFHDFLQLFDETKVQYGLARVSPPGSDVEKIIIIGWCPDSAPLKTRASFAANFAAVANNLFKGYHVQVTARDEDDLDENELLMKISNAAGARYSIQTSSKQQGKASTPPVKKSFTPSKSPAPVSKKEPVKTPSPAPAAKISSRVNDNNDDDDWNEPELKERDFDQAPLKPNQSSYKPIGKIDLQKVIAEEKAKEDPRLVQKPTAAGSKIDPSSDIANLKNESKLKRDSEFNSFLGTTKPPSMTESSLKNDDDKVIKGFRNEKSPAQLWAERKAKQNSGNAETKAEAPKPEVPEDEPEGEPDVKDLKSKFEGLAASEKEEEEMENKFAPPPKKSEPTIISPKPFSKPQEPVKAEEAEQPKTDYKKIGNPLPGMHIEADNEEEPEENDDDWDDDEDEAAQPPLPSRNVASGAPVQKEEPEQEEIAPSLPSRNSIPAPKQEEAPEQAPEEEIEEEAEEAAPQLPSRSSAAPPPPPRRATPEKKPKENPWATAEYDYDAAEDNELTNVENDKIINIEFVDDDWWLGELEKDGSKGLFPSNYVSLGN [chain 1 F553N] | < -3.06
chain 1 MALEPIDYTTHSREIDAEYLKIVRGSDPDTTWLIISPNAKKEYEPESTGSSFHDFLQLFDETKVQYGLARVSPPGSDVEKIIIIGWCPDSAPLKTRASFAANFAAVANNLFKGYHVQVTARDEDDLDENELLMKISNAAGARYSIQTSSKQQGKASTPPVKKSFTPSKSPAPVSKKEPVKTPSPAPAAKISSRVNDNNDDDDWNEPELKERDFDQAPLKPNQSSYKPIGKIDLQKVIAEEKAKEDPRLVQKPTAAGSKIDPSSDIANLKNESKLKRDSEFNSFLGTTKPPSMTESSLKNDDDKVIKGFRNEKSPAQLWAERKAKQNSGNAETKAEAPKPEVPEDEPEGEPDVKDLKSKFEGLAASEKEEEEMENKFAPPPKKSEPTIISPKPFSKPQEPVKAEEAEQPKTDYKKIGNPLPGMHIEADNEEEPEENDDDWDDDEDEAAQPPLPSRNVASGAPVQKEEPEQEEIAPSLPSRNSIPAPKQEEAPEQAPEEEIEEEAEEAAPQLPSRSSAAPPPPPRRATPEKKPKENPWATAEYDYDAAEDNELTPVENDKIINIEFVDDDWWLGELEKDGSKGLFPSNYVSLGN [chain 1 F553P] | < -3.06
